# T1: alkylhydroperoxide-reductase of H. pylori (26 kDa-protein) (Helicobacter pylori, UniProt P21762 1-198)
# T1 construct: Purified as an oligomer; also called 26 kDa-antigen; Alkylhydroperoxide reduktase
# T1 sequence (looked up): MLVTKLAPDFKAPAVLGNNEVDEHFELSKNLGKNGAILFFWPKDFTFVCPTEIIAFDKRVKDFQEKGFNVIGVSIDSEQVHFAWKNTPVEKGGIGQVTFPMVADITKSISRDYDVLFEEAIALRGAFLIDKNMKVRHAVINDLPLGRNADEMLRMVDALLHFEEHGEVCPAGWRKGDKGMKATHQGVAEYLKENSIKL
# B1: HP15m/3E8-D9-D6 (antibody, IgG1, V domains shown)
# VH: VQLLEESGGGLVQPTGSLKLSCAASGFTFNSYAMYWVRQAPGKGLEWVARIRSKSDNYATYYANSVKDRLTISRDDSQNMLYLQMNNLKTEDTAMYYCVRDHDKFPFYYALDYWGPGTLVTVSS
# VL: ELVLTQSPTIMSASLGERVTMTCTASSSVSSSYLHWYQQKPGSSPKLWIYSTSNLASGVPVRFSGSGSVTSYSLTISSMEAEDAATYYCHQYHRSPPTFGGGTKLEIK
# notes: Murine; also called DSM ACC2355
# B2: HP8m/4H5-D4-C9 (antibody, V domains shown)
# VH: VQLLEQSGAELVKPGASVKISCKASGYAFSTSWMNWVKQRPGKGLEWIGRIYPGDGDTNYNGKFKGKATLTADKSSSTAYMQLNSLTSEDSAVYFCVREDAYYSNPYSLDYWGQGTSVTVSS
# VL: DILLTQSPAILSVSPGERVSFSCRASQSIGTRIHWYQQRTNGSPRLLIKYGSESISGIPSRFSGSGSGTDFSLSINSVESEDIADYYCQQSNTWPLTFGAGTKLELK
# notes: also called DSM ACC2360; first monoclonal antibody that is specific to urease
# B3: HP9.1m/3C2-F8-E2 (antibody, mouse IgG1, V domains shown)
# VH: VQLLEESGGGLVKPGGSLQLSCSASGFTFSSHFMSWVRQTPEKRLEWVASISSGGDSFYPDSLKGRFAISRDNARNILFLQMSSLRSEDSAMYFCTRDYSWYALDYWGQGTSVTVSS
# VL: ELQMTQSPSSLSASLGDTITITCHASQNINVWLSWYQQKPGDIPKLLIYKASNLHTGVPSRFSGSGSGTGFTLVISSLQPEDIATYYCQQGRSYPLTFGAGTKLELK
# notes: also called DSM ACC2362; second monoclonal antibody that is specific to urease
# B4: HP16m/2A5-E6-E5 (antibody, mouse IgG1, V domains shown)
# VH: VQLLEESGPGLVAPSQSLSITCTVSGFSLSRYSVHWVRQPPGKGLEWLGMIWGGGSTDYNSGLKSRLSISNDNSKSQVFLKMNSLQTDDTAIYYCARNMGGRYPDYFDYWGQGTTLTVSS
# VL: DIVLTQSPASLAVSLGQRATISCRASKSVSTSGYSYIHWYQQKPGQPPKLLIFLASNLESGVPARFSGSGSGTDFTLNIHPVEEEDAATYHCQHSRELPLTFGAGTKLELK
# notes: also called DSM ACC2356
# Legend:
# [1] = biological target: T1, alkylhydroperoxide-reductase of H. …; experiment: sandwich ELISA: polyclonal rabbit anti-H. pylori antigen as catcher, antigen diluted 1:2 from 50 ng/ml, mAb supernatant as detector; lowest antigen concentration with extinction >= 2x control
# Protocol: (§1) Between the single steps the ELISA plate was washed 2 to 3 times with 300 μl PBS with 0.025% Tween (washing buffer) (vol.:vol.). The ELISA plates (MaxiSorb; Nunc) were coated for 1 hour at 37° C. with 100 μl of a solution of a polyclonal rabbit-anti-H. pylori antigen (pAK; approx. 10 μg antibody/ml carbonate buffer, 0.1 M, pH 9.5). In order to block the binding-sites that are still free 200 μl 150 mM PBS with 2% skimmed-milk powder (weight:volume) were pipetted per dish and incubated for 30 min at room temperature. 50 ng/ml purified H. pylori antigens solved in 150 mM PBS were diluted adding 0.1% skimmed-milk powder in 1:2 steps. The buffer served as a negative control. Then, 100 μl culture supernatant diluted 1:10 of the mAK against the same antigen, which is to be analysed, was added and incubated for 30 for 60 min at room temperature. […] The lowest concentration in which an extinction was still detected that was larger than or the same as twice the control was accepted as detection limit.
# [2] = biological target: β-urease (large subunit) of H. pylori (Helicobacter pylori, UniProt P69996 1-569); experiment: as above
# Sequence of β-urease (large subunit) of H. pylori (P69996 whole entry): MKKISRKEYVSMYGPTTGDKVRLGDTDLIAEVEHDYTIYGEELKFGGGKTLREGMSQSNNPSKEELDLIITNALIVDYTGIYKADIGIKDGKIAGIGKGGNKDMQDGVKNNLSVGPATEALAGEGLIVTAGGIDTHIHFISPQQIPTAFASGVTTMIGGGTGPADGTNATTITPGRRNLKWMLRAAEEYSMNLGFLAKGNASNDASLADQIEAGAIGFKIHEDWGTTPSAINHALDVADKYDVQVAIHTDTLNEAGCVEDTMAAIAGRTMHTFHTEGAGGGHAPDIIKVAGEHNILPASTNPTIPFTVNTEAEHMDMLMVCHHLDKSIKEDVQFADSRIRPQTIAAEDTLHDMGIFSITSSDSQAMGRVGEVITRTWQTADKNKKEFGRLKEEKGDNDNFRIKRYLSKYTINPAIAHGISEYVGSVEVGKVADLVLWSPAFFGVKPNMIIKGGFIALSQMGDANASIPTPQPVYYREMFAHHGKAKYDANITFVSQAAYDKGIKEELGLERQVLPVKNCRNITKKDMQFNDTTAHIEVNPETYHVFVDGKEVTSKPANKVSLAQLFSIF
# Protocol: as §1
# [3] = biological target: H. pylori urease (oligomeric, purified) (Helicobacter pylori, UniProt P14916 1-238; P69996 1-569); experiment: SPR (BIAcore), mAb captured by rabbit anti-mouse antibody, H. pylori antigen injected; unit inferred
# Sequence of H. pylori urease (oligomeric, purified) (P14916 whole entry, chain 1 of 2): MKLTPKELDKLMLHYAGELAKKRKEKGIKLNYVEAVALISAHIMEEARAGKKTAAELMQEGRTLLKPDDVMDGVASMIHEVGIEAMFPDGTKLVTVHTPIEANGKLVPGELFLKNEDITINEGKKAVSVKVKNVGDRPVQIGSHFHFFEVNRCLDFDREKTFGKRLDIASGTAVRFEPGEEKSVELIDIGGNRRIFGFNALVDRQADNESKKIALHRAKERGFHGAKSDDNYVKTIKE
# Sequence of H. pylori urease (oligomeric, purified) (P69996 whole entry, chain 2 of 2): as the sequence (P69996 whole entry) above
# Protocol: First, a polyclonal rabbit-anti-mouse antibody was immobilised on the dextran matrix of the BIAcore CM5 glass carrier chip. By adding the first H. pylori antigen-specific monoclonal antibody (1. MAK; 100 μg/ml; 10 μl), it reacted with the immobilised catching antibody and the respective change was measured at the detector (ΔRU₁; RU Resonance Units). After adding the H. pylori antigen (45 μg/ml; 5 μl), it reacted with the first mAK. Then, the remaining free catching antibody was blocked with an unspecific mouse-antibody (1 mg/ml; 10 μl) and oligomeric epitopes by adding another first mAK (100 μg/ml; 10 μl). After the reaction then following of the second H. pylori-antigen-specific antibody (2nd mAK; 100 μg/ml; 10 μl) with the bound antigen, the change in the signal of the detector (ΔRU₂) was determined anew and was compared in percentage to the change at the detector after adding the 1st mAK (ΔRU₂/ΔRU₁). A ratio of ΔRU₂/ΔRU₁<10% indicated overlapping epitopes.
# Hsp60 of H. pylori = biological target: T2, Hsp60 of H. pylori (Helicobacter pylori, UniProt P42383 1-546); experiment: sandwich ELISA: polyclonal rabbit anti-H. pylori antigen as catcher, antigen diluted 1:2 from 50 ng/ml, mAb supernatant as detector; lowest antigen concentration with extinction >= 2x control
# T2 construct: Purified as an oligomer
# T2 sequence (P42383 whole entry): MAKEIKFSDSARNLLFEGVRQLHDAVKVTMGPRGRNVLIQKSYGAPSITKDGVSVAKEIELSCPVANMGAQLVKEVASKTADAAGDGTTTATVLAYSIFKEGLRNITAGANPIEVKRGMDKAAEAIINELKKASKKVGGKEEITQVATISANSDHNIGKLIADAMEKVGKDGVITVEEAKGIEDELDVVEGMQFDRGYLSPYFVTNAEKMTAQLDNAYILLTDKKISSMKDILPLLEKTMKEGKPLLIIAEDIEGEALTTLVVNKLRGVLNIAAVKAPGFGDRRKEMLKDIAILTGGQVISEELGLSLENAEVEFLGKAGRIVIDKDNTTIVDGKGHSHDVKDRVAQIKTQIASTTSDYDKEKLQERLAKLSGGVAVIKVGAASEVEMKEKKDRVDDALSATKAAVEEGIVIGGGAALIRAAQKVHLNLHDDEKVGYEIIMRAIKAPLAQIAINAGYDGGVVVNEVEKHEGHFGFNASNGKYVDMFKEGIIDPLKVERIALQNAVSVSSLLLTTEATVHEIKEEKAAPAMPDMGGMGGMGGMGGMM
# Protocol: as §1
binder,measurement,setting,value
B1,NWG (detection limit),[1],0.6 ng Ag/ml
B2,NWG (detection limit),[2],0.6 ng Ag/ml
same,koff,[3],4.5e-06 s⁻¹
B3,NWG (detection limit),[2],1.2 ng Ag/ml
B4,NWG (detection limit),Hsp60 of H. pylori,3 ng Ag/ml

# Reference: US20070009975A1 (DAKOCYTOMATION DENMARK A S, published 2007)
